Experimental findings from patent US20130296258A1 (Pieris, published 2013) are described below.

For the assay, the target named is T1, Recombinant human Glypican-3 (human, UniProt P51654 25-559, limits assumed, randomly biotinylated via Lysine residues (EZ-Link Sulfo-NHS-LC-LC-Biotin) where captured on Neutravidin; not biotinylated where used as competitor in solution).
T1 construct: Bought protein; The biotinylated and the non-biotinylated preparation are written as one molecule; also called GPC3; GPC-3
T1 sequence (P51654 25-559 limits assumed): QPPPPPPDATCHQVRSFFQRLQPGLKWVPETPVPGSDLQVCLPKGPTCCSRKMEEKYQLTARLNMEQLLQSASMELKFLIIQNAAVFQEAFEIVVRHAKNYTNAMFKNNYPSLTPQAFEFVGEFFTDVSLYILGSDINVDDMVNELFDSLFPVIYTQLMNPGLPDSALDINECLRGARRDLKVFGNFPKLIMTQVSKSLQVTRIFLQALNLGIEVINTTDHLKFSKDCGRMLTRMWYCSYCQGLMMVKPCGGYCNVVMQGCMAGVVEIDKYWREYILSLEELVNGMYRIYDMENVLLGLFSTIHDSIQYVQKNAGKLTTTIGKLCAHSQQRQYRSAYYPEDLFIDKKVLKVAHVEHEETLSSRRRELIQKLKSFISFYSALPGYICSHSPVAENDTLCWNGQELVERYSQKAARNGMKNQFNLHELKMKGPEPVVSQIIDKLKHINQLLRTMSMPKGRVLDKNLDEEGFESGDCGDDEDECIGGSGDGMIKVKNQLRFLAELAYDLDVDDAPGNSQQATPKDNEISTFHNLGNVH
Put plainly: direct ELISA: biotinylated human Glypican-3 captured via Neutravidin, protein titrated, RFU readout. As for the experimental part:
A “direct” ELISA was performed to verify the binding affinity and specificity of the selected Lcn2 muteins. Therefore, a constant concentration of 1 μg/ml biotinylated human Glypican 3 (R&D Systems) was captured on the surface of a polystyrol plate (Greiner, GE) via BSA blocked Neutravidin (Thermo Scientific, 5 μg/ml). Two step dilution series of purified Lcn2 muteins were incubated with the captured GPC-3 for 1 h at room temperature and detected either via the Strep-tag II using a rabbit anti-strep-tag II polyconal antibody (GenScript, USA) or by using a scaffold-specific polyclonal rabbit antibody. In both cases an anti rabbit IgG-HRP conjugate (Abcam, UK) was employed as secondary detection antibody.
The absorption ΔA at […] was measured in an ELISA reader (Tecan, GE) and the data were fitted with Graphpad Prism software (Statcom, USA).

B1: Lcn2 wildtype protein (other)
chain: QDSTSDLIPAPPLSKVPLQQNFQDNQFHGKWYVVGLAGNAILREDKDPQKMYATIYELKEDKSYNVTSVLFRKKKCDYWIRTFVPGSQPGEFTLGNIKSYPGLTSYLVRVVSTNYNQHAMVFFKKVSQNREYFKITLYGRTKELTSELKENFIRFSKSLGLPENHIVFPVPIDQCIDG
notes: also called recombinant Lcn2; negative control; not shown: C-terminal Strep-tag II of the phNGAL98 expression vector
On to B1, for which the binding result was “no binding”.
